# Data taken from the DeepSol protein solubility set.
# Experiment: soluble on expression in E. coli; label from the status in PepcDB or PDB records
row,Sequence,soluble on expression in E. coli
1,MKKRALVSVSDKTGVVEFVKGLLEQGIEVISTGGTKKLLEENGLQVIGISEVTGFPEIMDGRVKTLHPNIHGGLLAVRDNETHVAQMNELGMEPIDFVVVNLYPFKETIAKPDVTFADAIENIDIGGPTMIRSAAKNHKFVSVIVDPVDYDVVLAELKENGEVAEETKRKLAAKVFRHTAAYDALISNYLTEQMGEESPETLTVTFEKKQDLRYGENPHQKATFYKAPFAATSSVAYAEQLHGKELSYNNINDADAALSIVKEFTEPAVVAVKHMNPCGVGVGTDIHEAYTRAYEADPVSIFGGIIAANREIDKATAEKLHEIFLEIIIAPSFSKEALEVLQSKKNLRLLTVNIEKATSASKKLTSVQGGLLVQEEDTLSLDESTISIPTKREPSEQEWKDLKLAWKVVKHVKSNAIVLAKDDMTIGVGAGQMNRVGSAKIAITQAGEKAQGSALASDAFFPMPDTVEEAAKAGITAIIQPGGSIRDEDSIKVADTYGIAMVFTGVRHFKH,not soluble
2,PESPGGRGIKPDTCPAPGPRSPLQLPLAPDAESGSSGRRPGEPRDPLKLQQLQNQIRLEQEAGARQPPPAPRSAPPSPPFPPPPAFPELAACTPPASPEPMSALASRSAPAMQSSGSFNYARPKQFIAAQNLGPASGHGTPASSPSSSSLPSPMSPTPRQFGRAPVPPFAQPFGAEPEAPWGSSSPSPPPPPPPVFSPTAAFPVPDVFPLPPPPPPLPSPGQASHCSSPATRFGHGQTPAAFLSALLPSQPPPAAVNALGLPKGVTPAGFPKKASRTARIASDEEIQGTKDAVIQDLERKLRFKEDLLNNGQPRLTYEERMARRLLGADSATVFNIQEPEEETANQEYKVSSCEQRLISEIEYRLERSPVDESGDEVQYGDVPVENGMAPFFEMKLKHYKIFEGMPVTFTCRVAGNPKPKIYWFKDGKQISPKSDHYTIQRDLDGTCSLHTTASTLDDDGNYTIMAANPQGRISCTGRLMVQAVNQRGRSPRSPSGHPHVRRPRSRSRDSGDENEPIQERFFRPHFLQAPGDLTVQEGKLCRMDCKVSGLPTPDLSWQLDGKPVRPDSAHKMLVRENGVHSLIIEPVTSRDAGIYTCIATNRAGQNSFSLELVVAAKEAHKPPVFIEKLQNTGVADGYPVRLECRVLGVPPPQIFWKKENESLTHSTDRVSMHQDNHGYICLLIQGATKEDAGWYTVSAKNEAGIVSCTARLDVYTQWHQQSQSTKPKKVRPSASRYAALSDQGLDIKAAFQPEANPSHLTLNTALVESEDL,soluble
3,MFLAQPRGFCAGVVRAIEIVERALEKYGPPVYVRHEIVHNKYVVESLKAKGAIFVEELSEVPPKAVTVFSAHGVARSIEEEAAARDLPVLNATCPLVTKVHNQGKRYTSKGRTLILIGHAGHPEVEGTMGQVPGPVLLVQNLDDVAALTLPPETPVAYITQTTLSVDDTKDIIVALSKKFHDIEGPDTRDICYATQNRQSAVRQMSKLVDLILVVGANNSSNSNRLREIGTEAGIPSYLIADGSELDPAWLDGKKAVGITAGASAPEVLVDDVIEALRRIVPVTVSVLPGREENIEFVLPAELATALEHHHHHH,not soluble
4,MSSEELEQVWSNIKSEARALAECEPMLASFFHATLLKHENLGSALSYILANKLANPIMPAIAIREVVEEAYRSDAHMIVSAARDILAVRLRDPAVDKYSTPLLYLKGFHALQAYRIGHWLWAQDRKALAIYLQNQVSVAFGVDIHPAATIGCGIMLDHATGIVIGETAVVENDVSILQSVTLGGTGKTSGDRHPKIREGVMIGAGAKILGNIEVGRGAKIGAGSVVLQSVPAHTTAAGVPARIVGKPESDKPSLDMDQHFNGSIQGFEYGDGI,not soluble
5,MGSDKIHHHHHHMAFKNLKELSFEKSNYIKPKRFAYESNGRLCTWDFIESKDSVSVLLYHKELESFIFVRQFRIPLWYHQMHDKDYVKDDDMGYTIELCSGLVDKKLSLEEIAKEECIEELGYAPKNLEKIGDFYTGFGSGVSKQSFYFVEVDEKDKISSGGGVDDEEIEAVYVKVQDFEKKCKNMIRTPLLDFAYMWFLKEKWGKLKII,not soluble
6,MGSDKIHHHHHHMAKTIKLILSDIDGTILDNNHQVDAHLRDTITELKKESIPFVLASARSPHGMFPIAQELNLGANPIACYNGALIVEGNKEHYQTLIEHGLSKADVKKIVALIKKQFPHISINFYSGGDWIVEEIDQWVQIEADITKESPDIRNFDTLLTDDAIPIHKLLLIANAQAIQEFFTYLKRVNFEDASFYLSKDNYLEVTSQSVSKENALLEIAKYYDISLSQTMAIGDNYNDIPMLKLAGLGVAMANAPQAVKNEADIETVSNNDNGVSKVIEDYVLI,not soluble
7,MVSEMLSEAGHSVSYLKGGMKAWSEHLEPVKVGDLKDGGEMYQFVRIGKGCLSYMVISNGEAAIIDATRMVNFFIDFAKGKGATITHVFDTHLHADHISGGRVIAEKTKATYWLPPKDAEEVEFDYQPLEEGNDIIIGNTTIKIQPIYSPGHTIGSTSFIVDDQYLLSGDILFIDSIGRPDLAGMAEDWVGDLRKTLYSRYKALSKDLIVLPAHFMIIDELNENGSVGKQLSTLFSENHGLNIADETEFRHLVTDHLPPQPNAYQEIRETNMGKISPDEEKQREMEIGPNRCAIRLEHHHHHH,not soluble
8,MAKVCYFTGRKTSSGNNRSHAMNSTKRTVKPNLQKVRVLIDGKPKKVWVSTRALKSGKIERVLEHHHHHH,not soluble
9,SASEVEEQIPVREEFFLCGGVETKIIKCGPWTNLFEKQDVSKPKQLIFIIPGNPGYSAFYVPFAKALYTLMKSRFPVWIISHAGFSVTPKDKKVLAAPQEESNAQKIEDVYGLNGQIEHKIAFLRAHVPKDVKLILIGHSVGTYMTLHVMKRVPELPVAHAFLLFPTIERMSESPNGKFATPFLCQFRYLLYATSYLLFKPCPEVIKSFIIQKLMGQMNIKLELPLTDILQPFCLA,soluble
10,MTESTFPQYPRLVLSKGREKSLLRRHPWVFSGAVSRLEGKANLGETIDIVDHQGKWLARGAWSPASQIRARVWTFDKAESIDIAFFTRRLRQAQQWRDWLAKKDGLDSYRLIAGESDGLPGVTIDRFGHFLVLQLLSAGAEYQRAALISALQTCYPDCAIYDRSDVAVRKKEGMALTQGPVTGELPPALLPIEEHGMKLLVDIQGGHKTGYYLDQRDSRLATRRYVENQRVLNCFSYTGGFAVSALMGGCRQVVSVDTSQDALDIARQNVELNQLDLSKAEFVRDDVFKLLRAYREHGEKFDVIIMDPPKFVENKSQLMGACRGYKDINMLAIQLLNPGGILLTFSCSGLMTSDLFQKIIADAAIDAGRDVQFIEQFRQAADHPVIATYPEGLYLKGFACRVM,not soluble
11,MLPKYEQIKQDLLREIKNHTFIPGDKFYSEADIKRKYAVSSITAVKALNELTSAGYLYRIQGKGTFVSKSKVSQNVKFSDIELHSLDSEKVKVLSIEEDNQAEILKELGLPANASYYRIKRVRYSEDTPFLVHITHLPKKLVKEPLSKDLTAYASVYERVRKDFSVDLFSLASVETNEIVFPEDAELLNLLQLSFREPAVKQVKHSYLADGSVAEYIISYKHWKYFKTKIEVEAE,not soluble
12,MHHHHHHSSGVDLGTENLYFQSNAMLDPLDILTNIDDVLPYYQAIFSAEEQKVVGYEVLGRILADSEIQSLGPFFLDAGIPEEYKLEVDNRIIRQALDRFLEADSDLLIFMNQDANLLMLDHGESFLELLKEYEAKGIELHRFVLEITEHNFEGDIEQLYHMLAYYRTYGIKIAVDNIGKESSNLDRIALLSPDLLKIDLQALKVSQPSPSYEHVLYSISLLARKIGAALLYEDIEANFQLQYAWRNGGRYFQGYYLVSPSETFLERDVLKQRLKTEFHQFITHEKKKLETVYEHSEQFYKRVHQAVTSLRKNNLSSDDDFIKKLAEELTDCSFRIYMCDEEGDQLTGNVFKQDGEWIYQPEYAEKNWSWRPYFLENIMRMRNLRKGFFSDLYSDLETGEMIRTFSYPMDDQMYLFIDLPYSYLYEQDGLI,soluble
13,MGSDKIHHHHHHMIQITPFLDSKRKTPLYVQLYQYIKEGIESGQLKSDTFLPSIRELALHLRVSKNTVEGAYQQLIAEGYVESIPRVGLKILELEATFLCDKGGKQLQNVTMGEIQREHKSIEFDFVYGEIDTAHLPLKVWKRHVQEVLKGASEELLMYGDPFGDWHLRQELSHYLLQSRGVSCRPEQVVITAGTQHAVSLLCQLLSLHGSTVAFEDPGYNGVRSVFINQGCRIAPIPIEADGLSLSRLHESHANIVYVTPSHQLPCGMILPVHKRSLLLEWAYEHEGYIVEDDYDSEFRYQGQPIPALKALDQNEKVIYLGTFSKSFLPSIRVSYMVLPGELVPLYQQKLANYNQAASQLIQRALYTFIKDGDFQRHIRRMKKVYQSKHHTLLKSVKTYLGDRVTVIGEKSGLHVLLNVPGREDHELIEKAMACGVKVYSTKTFWYNPKNQCSSFIMLGFGKLSEEAIKKGIRRLQQAWF,not soluble
14,MSPAPSRPFSVLRANDVLWLSLTAAEYDQSTYGSSTGPVYVSDSVTLVNVATGAQAVARSLDWTKVTLDGRPLSTIQQHSKTFFVLPLRGKLSFWEAGTTKAGYPYNYNTTASDQLLVENAAGHRVAISTYTTSLGAGPVSISAVAVLA,soluble
15,MAHHHHHHMTLKEAIDRDGVPATSSSKQRRLMDIHVTAYPGLVNQHMLPKHNTAVNDFSSIDPLQYRKAHTVRNNNAASYSEKEENVLDMLTTNQCTNRMTRLGMQLREERAKNPKGMPSISSLAPRGYRSRFLSPSFDERSTYRWDYCQWEPDGFHDTVRRELLAAYRDDWTEDEKADVDISMKIPYLTMAVSSDRLKDKATIYRKDFMEDATQADYRSLSYKTNLEDLGTSYAYSAYSIDDPRRKVLFDASVAALKTPHSVLEKTYSPRNSFLEKSLSTKQQSSAREELDRLRTMRREALHLSAAKRSAAESTDDGTTTKTVVIPGIKGSGYRRVPKGNDSYVCLSRDHFCYQQVDNF,not soluble
16,WKITDEQRQYYVNQFKTIQPDLNGFIPGSAAKEFFTKSKLPILELSHIWELSDFDKDGALTLDEFCAAFHLVVARKNGYDLPEKLPESLMPK,soluble
17,MAHHHHHHMGTLEAQTQGPGSMALNSAVILAGCGHMDGSEIREAVLVMLELDRHNVNFKCFAPNKNQKQVVDHKKKESVGEVRNILVESARIARGSVYDIEQIRVEEFDMLVIPGGYGVAKNFSNLFDEDKENDYILPEFKNAVREFYNAKKPIGAVCISPAVVVALLKDIAKVKVTIGEDSNGLIDKMGGVHVDCPTIKSVKDDVNRIFSCSAYMRNDSLYNVYLGIQDMISSMVNYLKSK,soluble
18,MAEASSANLGSGCEEKRHEGSSSESVPPGTTISRVKLLDTMVDTFLQKLVAAGSYQRFTDCYKCFYQLQPAMTQRIYDKFIAQLQTSIREEISDIKEEGNLEAVLNALDKIVEEGKVRKEPAWCEAQRCRVQQRCSLCVQAGGQRGSEETQALPVSMAGSPSPLPGSPGAQEGGV,not soluble
19,MGSDKIHHHHHHMSVGRIGFIGTGSITEAIVTGLATCADVPTEVWLSPRNAQIADRLAQAYPMVQVAGENQEVVDRCDVVCLAVRPQVAESVLQALRFSGRHHVISFIATYGLDKLRTLIAPAKTLVRAAPLPTVAEHLCNTLVFPADDIARSLFTQLGGAIEVGSEEAFDVLFSATATMGSYFALLHNQARWLEQHGSTYSEARDYLASLHFGLASVARKTQTRFDELSKEFTTAGGLNEQVLDALGAHRVFNAFDDAFDQVLHRIGGTVSQRNE,not soluble
20,KPYVSEDSRVYSPQEPTLVVKSVDNSVSIDVTSKYNVNLYRNGELIQKNVIAQSYSDTPTGFACYLAESINDKGFRSNPSQPVCVGEEIRIKLDGEYQPLKDNVSVVTVSKDSGIVKGAESFTAPVTGTYQFDAWYNNNLGQLNTGITNTVKLLEVLDDAGKVVGQGYLQMGHIGENQGMRYSTPIEVALEQGKTYQFALKDHFNMSYLTSNETYIYAGGIEGEKNEAQIADIRITPLM,not soluble
